Data from patent publication US20100260765A1 (AstraZeneca / MedImmune, published 2010).

Tests used:
Assay in all cases: cell-based or functional assay
KDR [1] = biological target: T1, KDR (human, UniProt P35968 20-1356)
KDR [2] = biological target: T1, KDR; remark: listed apart in the source
KDR [3] = biological target: T1, KDR; remark: listed apart in the source
KDR [4] = biological target: T1, KDR; remark: listed apart in the source
KDR [5] = biological target: T1, KDR; remark: listed apart in the source

T1 sequence (P35968 20-1356): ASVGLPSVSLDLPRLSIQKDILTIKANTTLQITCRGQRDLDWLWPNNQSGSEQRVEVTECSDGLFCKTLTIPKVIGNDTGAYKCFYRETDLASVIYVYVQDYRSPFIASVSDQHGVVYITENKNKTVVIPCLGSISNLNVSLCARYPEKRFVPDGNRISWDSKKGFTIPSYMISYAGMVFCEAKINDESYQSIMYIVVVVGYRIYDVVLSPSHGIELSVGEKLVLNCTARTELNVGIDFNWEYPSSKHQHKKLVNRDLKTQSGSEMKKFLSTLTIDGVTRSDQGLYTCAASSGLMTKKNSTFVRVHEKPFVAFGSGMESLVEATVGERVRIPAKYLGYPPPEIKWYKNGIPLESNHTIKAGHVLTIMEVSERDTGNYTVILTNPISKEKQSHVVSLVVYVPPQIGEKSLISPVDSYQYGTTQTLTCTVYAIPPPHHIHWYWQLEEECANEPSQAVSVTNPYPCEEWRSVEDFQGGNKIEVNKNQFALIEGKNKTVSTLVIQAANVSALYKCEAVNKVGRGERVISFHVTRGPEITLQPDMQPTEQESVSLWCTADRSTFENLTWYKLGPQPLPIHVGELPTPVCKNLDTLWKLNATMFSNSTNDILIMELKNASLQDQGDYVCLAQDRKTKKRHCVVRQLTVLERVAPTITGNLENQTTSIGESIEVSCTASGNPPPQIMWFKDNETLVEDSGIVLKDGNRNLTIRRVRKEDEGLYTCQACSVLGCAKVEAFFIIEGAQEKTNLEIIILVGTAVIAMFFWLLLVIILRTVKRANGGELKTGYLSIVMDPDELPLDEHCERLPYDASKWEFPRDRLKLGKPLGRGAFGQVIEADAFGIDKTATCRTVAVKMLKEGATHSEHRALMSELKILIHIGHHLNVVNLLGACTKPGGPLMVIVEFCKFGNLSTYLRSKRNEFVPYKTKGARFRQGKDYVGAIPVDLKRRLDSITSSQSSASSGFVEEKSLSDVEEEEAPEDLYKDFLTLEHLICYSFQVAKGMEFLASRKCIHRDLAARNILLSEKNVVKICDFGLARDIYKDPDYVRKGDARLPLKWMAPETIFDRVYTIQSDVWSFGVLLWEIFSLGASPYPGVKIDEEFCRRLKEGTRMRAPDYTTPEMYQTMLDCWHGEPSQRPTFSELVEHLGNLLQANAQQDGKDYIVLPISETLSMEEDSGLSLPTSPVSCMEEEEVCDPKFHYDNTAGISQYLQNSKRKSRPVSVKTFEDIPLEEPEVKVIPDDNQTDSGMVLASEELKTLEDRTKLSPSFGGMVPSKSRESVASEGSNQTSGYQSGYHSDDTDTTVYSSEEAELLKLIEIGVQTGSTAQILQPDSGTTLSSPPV

| Binder | % Inhibition of VEGF165-mediated 6-keto Prostaglandin F1α release at 133 nM Antibody Concentration, Average (KDR [1]) [%] | % Inhibition of VEGF165-mediated 6-keto Prostaglandin F1α release at 133 nM Antibody Concentration, N = 1 (KDR [1]) [%] | % Inhibition of VEGF165-mediated 6-keto Prostaglandin F1α release at 133 nM Antibody Concentration, N = 2 (KDR [1]) [%] | Activity at 133 nM (% Inhibition), 24-hour Pre-incubation at 37° C., Average (KDR [2]) [%] | Activity at 133 nM (% Inhibition), 24-hour Pre-incubation at 37° C., N = 1 (KDR [2]) [%] | Activity at 133 nM (% Inhibition), 24-hour Pre-incubation at 37° C., N = 2 (KDR [2]) [%] | Activity at 133 nM (% Inhibition), 1-hour Pre-incubation at 4° C., Average (KDR [3]) [%] | Activity at 133 nM (% Inhibition), 1-hour Pre-incubation at 4° C., N = 1 (KDR [3]) [%] | Activity at 133 nM (% Inhibition), 1-hour Pre-incubation at 4° C., N = 2 (KDR [3]) [%] | Activity at 133 nM Antibody Concentration (% Survival Inhibition), Average (KDR [4]) [%] | Activity at 133 nM Antibody Concentration (% Survival Inhibition), N = 1 (KDR [4]) [%] | Activity at 133 nM Antibody Concentration (% Survival Inhibition), N = 2 (KDR [4]) [%] | % of Max VEGF KDR pTyr Activity (at 133 nM antibody concentration), Average (KDR [5]) [%] | % of Max VEGF KDR pTyr Activity (at 133 nM antibody concentration), N = 1 (KDR [5]) [%] | % of Max VEGF KDR pTyr Activity (at 133 nM antibody concentration), N = 2 (KDR [5]) [%] |
| --- | --- | --- | --- | --- | --- | --- | --- | --- | --- | --- | --- | --- | --- | --- | --- |
| 29A3 (antibody, V domains shown) VH: QVQLQESGPGLVKPSETLSLTCTVSGGSISSYFWSWIRQPAGKGLEWIGRIYFSGRTNYNPSLKSRVTMSVETSKNQFSLKLNSVTAADTAVYYCARDGGWNYDVAFDYWGQGTLVTVSS VL: QAVLTQPSSLSASPGASASLTCTLRSGINVGTYRIYWYQQKPGSPPQYLLRYKSDSDQLQGSGVPSRFSGSKDASANAGILLISGLQSEDEADYYCMVWHSNTWVFGGGTKLTVL | 13 | 11 | 16 | 11 | 7 | 15 | 23 | 25 | 20 | -111 | -65 | -156 | 16 | 15 | 17 |
| 21H6 (antibody, V domains shown) VH: QVQLVESGGGLVKPGGSLRLSCAASGFTFSDYYMSWIRQAPGKGLEWVSYISNSGITIYYADSVKGRFTISRDNAKNSLYLQMNSLRAGDTAVYYCAREEWYSSRWYRNFDYWGQGTLVTVSS VL: DIQMTQFSSSLSASVGDRVTITCRASQSISRYLNWYQQKPGKAPKLLIYAASSLQSGVPSRFNGSGSGTDFTLTISSLQPEDFATYYCQQSYSAPLTFGGGTKVEIK | 100 | 104 | 96 | 27 | 35 | 19 | 74 | 74 | 75 | 91 | 105 | 77 | 11 | 10 | 12 |
| 32B2 (antibody, V domains shown) VH: EVQLLESGGGLVQPGGSLRLSCAASGFTFSNYAMSWVRQAPGKGLDWVSAISGRGGSTYYADSVKGRFTISRDNSKNTLFLLMNSLRAEDTAVYYCAKASGDDWGQGTLVTVSS VL: not shown | 6 | 3 | 9 | 49 | 38 | 61 | 29 | 25 | 33 | -21 | -13 | -29 | 11 | 12 | 10 |
| 30H10 (antibody, V domains shown) VH: EVQLLESGGGLVQPGGSLRLSCAASGFTFSNYAMSWVRQAPGKGLEWVSAISGSGGITYYADSVKGRFTISRDNSKNTLFLQMNSLRAEDTAVYYCAKASGDNWGQGTLVSVSS VL: not shown | 10 | 10 | – | 62 | 48 | 77 | 26 | 31 | 21 | -115 | -84 | -147 | 12 | 12 | 13 |
| 30F6 (antibody, V domains shown) VH: QVQLVESGGGVVQPGRSLRLSCAASGFTFSTYGMHWVRQAPGKGLEWVAVIWYDGSNKYYADSVKGRFTISRDNSKNTLYLQMNSLRAEDTAVYYCACSYWNDDYYYGMDVWGQGTTVTVSS VL: DIQMTQSPSSLSASVGDRVIITCRASQNISSYLIWYQQKPGKAPNLLIHTTSSLQRGVPSRFSGSGSGTDFTLTISSLQPEDFATYYCQQSYSAPLTFGGGTKVEIK | 79 | 68 | 89 | 55 | 60 | 51 | 84 | 84 | 85 | 82 | 91 | 74 | 13 | 14 | 13 |
| 22B8 (antibody, V domains shown) VH: QLQLQESGPGLVKPSETLSLTCTVSGGSISSRYYYWGWVRQPPGKGLEWIGTIYYSGHTYYNPSLKTRVTISVDTSKNQFSLKLISVTAADTAVYYCATQQLVLYYFDFWGQGTLVTVSS VL: EIVLTQSPGTLSLSPGERAALSCRASQSISSSYLAWYQQRPGQAPRLLIYGASSRATGIPDRFNGSGSGTDFTLTISRLEPEDFAVYYCQQFGSSITFGQGTRLEIK | 72 | 67 | 76 | 99 | 82 | 115 | 76 | 75 | 76 | 88 | 88 | 87 | 7 | 9 | 5 |
| 29H3 (antibody, V domains shown) VH: QVQLVQSGAEVKKPGASVKVSCKASGYTFTSYDINWVRQATGQGLEWMGWMNPNSGKTGYAQKFQGRVTMTRNTSINTAYMELSSLRSEDTAVYYCARGGYSNLGWFDPWGQGTLVTVSS VL: DIQMTQSPSSVSASVGDRVTITCRASQGISSWLVWYHQKPGKAPKLLIYGASSLQSGVPSRFSGSGSGTDFTLTISSLQPEDFATYYCQQANNFPFTFGPGTKVDIK | 18 | 14 | 22 | 19 | 1 | 36 | 50 | 45 | 55 | -70 | -5 | -136 | 16 | 20 | 11 |
